Assay [1] concerns the target TGFβ receptor II (TGFβRII) on IMR90 human lung fibroblasts (human) (UniProt P37173). Description: cell-based or functional assay.
Assay [2] deals with TGFβ receptor on mink lung epithelial cells (MLEC-TGFβ, PAI-1 promoter luciferase reporter) (mink). Description: cell-based or functional assay.

Sequence of TGFβ receptor II (TGFβRII) on IMR90 human lung fibroblasts (human) (P37173 23-567): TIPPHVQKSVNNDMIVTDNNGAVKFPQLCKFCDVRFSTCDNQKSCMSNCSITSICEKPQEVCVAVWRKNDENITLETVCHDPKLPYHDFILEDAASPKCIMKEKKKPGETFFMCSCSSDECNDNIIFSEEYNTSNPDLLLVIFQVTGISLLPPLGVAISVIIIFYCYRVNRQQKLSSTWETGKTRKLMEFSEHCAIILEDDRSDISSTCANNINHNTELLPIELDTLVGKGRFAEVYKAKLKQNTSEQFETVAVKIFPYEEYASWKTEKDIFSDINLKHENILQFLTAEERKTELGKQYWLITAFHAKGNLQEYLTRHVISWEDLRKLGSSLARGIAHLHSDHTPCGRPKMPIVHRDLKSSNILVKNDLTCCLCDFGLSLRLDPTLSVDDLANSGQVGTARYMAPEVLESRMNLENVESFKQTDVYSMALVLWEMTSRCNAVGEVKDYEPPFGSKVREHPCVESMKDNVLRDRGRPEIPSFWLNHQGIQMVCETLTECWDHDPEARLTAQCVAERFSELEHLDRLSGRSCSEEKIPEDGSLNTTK

In assay [1], “C-terminal discoidin and carboxypeptidase domains of mouse ACLP (amino acids 374-1128, C-terminal myc-His tag) (from UniProt Q640N1 374-1128)” came in with an SMA and collagen protein expression in IMR90 cells (48 h) of 30 nM. The luciferase activity (PAI-1 promoter reporter in MLEC cells) in assay [2] was found to be 25 µg/mL.
Consider “N-terminal Tsp repeat domain of mouse ACLP (amino acids 26-373, C-terminal myc-His tag) (from UniProt Q640N1 26-373) (ligand)”, for which the Smad3 phosphorylation in IMR90 cells (Western blot, 30 min) in assay [1] amounted to 30 nM. This substance also came in with a luciferase activity (PAI-1 promoter reporter in MLEC cells) in assay [2] of 5 µg/mL.

For the origin of these results see patent US20170190778A1.
